The source of these data is article PMC3423979 (Nature chemical biology, 2012).

Assay [1] addresses CrkL SH2 (residues 1–105) (human) (UniProt P46109). The experiment in a line: ITC. For orientation: Isothermal titration calorimetry measures the heat released or taken up as one component is titrated into another.
Assay [2] concerns the target full-length CrkL (residues 1–303) (human) (UniProt P46109). Briefly: ITC.
The target of assay [3] is CrkL SH2 (residues 1–105) (human, UniProt P46109 1-105). The experiment in a line: ITC.
Sequence of CrkL SH2 (residues 1–105) (P46109 1-105): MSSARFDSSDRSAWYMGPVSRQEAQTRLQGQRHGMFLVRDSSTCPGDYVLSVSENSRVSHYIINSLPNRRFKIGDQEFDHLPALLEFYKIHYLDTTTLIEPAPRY
Assay [4] deals with full-length CrkL (residues 1–303) (human, UniProt P46109 1-303). The experiment in a line: NMR titration.
Sequence of full-length CrkL (residues 1–303) (P46109 whole entry, the tested form may be a part): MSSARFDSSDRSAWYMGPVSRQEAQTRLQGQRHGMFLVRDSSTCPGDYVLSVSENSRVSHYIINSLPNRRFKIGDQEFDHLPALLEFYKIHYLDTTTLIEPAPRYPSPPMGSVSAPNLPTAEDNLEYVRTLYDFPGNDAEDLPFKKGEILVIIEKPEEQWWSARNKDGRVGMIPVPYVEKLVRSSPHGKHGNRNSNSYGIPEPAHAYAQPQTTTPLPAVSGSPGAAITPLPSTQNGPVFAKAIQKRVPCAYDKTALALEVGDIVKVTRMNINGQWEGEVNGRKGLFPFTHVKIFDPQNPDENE
Assay [5] has as its target CrkL SH3^N (residues 120–188) (human, UniProt P46109 120-188). Briefly: ITC.
Assay [6] addresses phosphorylated (pTyr207) CrkL (human, UniProt P46109 1-303, phosphotyrosine at 207 (pTyr207)). Briefly: ITC.

Where no end group is shown, it is not given here. [ ]: non-standard residue; d: D form. pY = N[C@@H](Cc1ccc(OP(=O)(O)O)cc1)C(=O)O

Sequence of CrkL SH3^N (residues 120–188) (P46109 120-188): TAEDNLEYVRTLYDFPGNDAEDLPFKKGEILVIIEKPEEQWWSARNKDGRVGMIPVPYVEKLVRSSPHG
Sequence of CrkL SH2 (residues 1–105) (human) (P46109 1-105): as the sequence (P46109 1-105) above
Sequence of full-length CrkL (residues 1–303) (human) (P46109 whole entry, the tested form may be a part): as the sequence (P46109 whole entry, the tested form may be a part) above
Sequence of phosphorylated (pTyr207) CrkL (P46109 whole entry): as the sequence (P46109 whole entry, the tested form may be a part) above

Regarding CrkL-pTyr207-peptide, the equilibrium dissociation constant (Kd) (in general, a measure of binding affinity in units of concentration) in assay [1] turned out to be 7 µM; in assay [2] it was 23 µM.
In the case of AGVSE[pY]ELPEDPR [FGFR-pTyr-peptide], the binding result in assay [3] is listed as “binds”.
In the case of YLQAPELPTKTRTS [PPII-peptide], the binding result in assay [4], in assay [5] and in assay [6] was “binds” in each case.
